The nature of the data set: VT1021 concentration in plasma (pharmacokinetic profile) in the clinical study. It is filed as in vivo, human. The following applies: phase I/II study. From the text: FIG. 2 is a chart showing the pharmacokinetic profile of VT1021 concentration in the plasma of human patients with glioblastoma (red), pancreatic cancer (green), ovarian cancer (blue), other (purple) or not reported (red) over time following the initial administration at time 0. “Others” and “Not reported” refer to subjects enrolled in the clinical trial with solid tumor indications other than GBM, Panc, and Ovarian cancers.
FIG. 7 is a chart showing the pharmacokinetic profile of VT1021 concentration in the plasma of male (solid line) and female (dotted line) glioblastoma patients over time following the initial administration at time 0.
In the “expansion stage” of the VT1021-01 Study, subjects diagnosed with recurrent GBM, pancreatic cancer, ovarian cancer and other solid tumors were enrolled. […] The correlation between days on study and tumor shrinkage versus expression profile of CD36 and CD47 was analyzed (FIG. 4). The general expression profile of CD36 and CD47 has been assessed by IHC on Tumor Tissue Microarrays (TMAs), which contain biopsy samples collected from pancreatic cancer patients. […]
The blood samples were collected from GBM subjects in the expansion phase, who were treated by VT1021 at 11.8 mg/kg, twice weekly, by IV infusion. VT1021 levels were measured and analyzed among male and female subjects (FIG. 7). […]

No end group written: not given here.

As for “cyclic DWLPK (also: cyclic, mode of cyclisation not given here) [VT1021, 5-amino acid cyclic peptide from prosaposin; Tsp-1-inducing agent]”, the pharmacokinetic profile entry runs as follows: (solid tumors including pancreatic cancer) “predictable”; (solid tumors including rGBM) “predictable”.

The record behind these values is patent publication US20250041379A1, “METHODS AND COMPOSITIONS FOR THE TREATMENT OF CANCER” (Vigeo Therapeutics, Inc., priority 2021, published 2025).
